Assay results published in patent publication US20240124528.

T1: IL-17RB-Flag (Flag-tagged IL-17RB, wild type)
T1 chain: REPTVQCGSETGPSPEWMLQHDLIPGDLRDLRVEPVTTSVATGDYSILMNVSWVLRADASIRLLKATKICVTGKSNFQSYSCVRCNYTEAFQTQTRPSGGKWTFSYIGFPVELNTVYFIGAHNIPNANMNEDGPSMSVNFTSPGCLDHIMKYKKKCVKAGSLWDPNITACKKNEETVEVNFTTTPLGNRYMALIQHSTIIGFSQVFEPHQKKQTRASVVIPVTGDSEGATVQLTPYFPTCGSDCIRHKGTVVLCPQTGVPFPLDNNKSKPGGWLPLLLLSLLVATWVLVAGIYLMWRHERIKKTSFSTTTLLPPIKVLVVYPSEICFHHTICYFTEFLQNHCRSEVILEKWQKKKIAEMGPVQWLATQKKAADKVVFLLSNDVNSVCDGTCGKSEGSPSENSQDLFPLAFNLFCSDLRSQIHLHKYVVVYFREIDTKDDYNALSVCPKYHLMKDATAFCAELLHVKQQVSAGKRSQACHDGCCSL

T2: IL-17RB ΔV403˜S416 (Del-3), HA-tagged
T2 chain: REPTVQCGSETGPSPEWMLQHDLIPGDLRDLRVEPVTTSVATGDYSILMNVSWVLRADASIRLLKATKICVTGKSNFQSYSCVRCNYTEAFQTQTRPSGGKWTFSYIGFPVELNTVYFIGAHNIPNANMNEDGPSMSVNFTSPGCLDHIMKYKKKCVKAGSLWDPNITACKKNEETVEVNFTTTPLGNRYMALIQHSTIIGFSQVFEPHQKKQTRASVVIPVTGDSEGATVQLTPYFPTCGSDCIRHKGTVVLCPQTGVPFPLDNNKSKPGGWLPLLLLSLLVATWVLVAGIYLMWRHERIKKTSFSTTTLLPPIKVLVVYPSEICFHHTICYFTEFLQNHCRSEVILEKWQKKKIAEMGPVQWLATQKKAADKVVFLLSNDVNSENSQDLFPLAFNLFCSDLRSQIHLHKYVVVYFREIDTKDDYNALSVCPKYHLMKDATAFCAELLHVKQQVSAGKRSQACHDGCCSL

T3: interleukin-17 receptor B (IL-17RB), human, endogenous in pancreatic cancer cells
T3 chain: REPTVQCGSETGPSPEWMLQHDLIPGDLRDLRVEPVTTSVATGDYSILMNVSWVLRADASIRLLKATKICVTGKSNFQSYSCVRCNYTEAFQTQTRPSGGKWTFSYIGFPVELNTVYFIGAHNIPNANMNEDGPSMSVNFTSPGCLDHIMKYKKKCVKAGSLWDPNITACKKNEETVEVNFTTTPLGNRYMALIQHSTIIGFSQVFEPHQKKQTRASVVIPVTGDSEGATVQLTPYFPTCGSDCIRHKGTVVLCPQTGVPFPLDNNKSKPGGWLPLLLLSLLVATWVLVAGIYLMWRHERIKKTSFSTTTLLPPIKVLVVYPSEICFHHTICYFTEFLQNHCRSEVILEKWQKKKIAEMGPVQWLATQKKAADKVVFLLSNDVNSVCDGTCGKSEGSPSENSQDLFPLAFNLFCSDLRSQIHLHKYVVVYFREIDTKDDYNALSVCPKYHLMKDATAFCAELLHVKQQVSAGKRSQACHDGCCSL

B1: HA-TRIM56 (TRIM56-HA, HA-tagged tripartite-motif 56) (protein)
chain: MVSHGSSPSLLEALSSDFLACKICLEQLRAPKTLPCLHTYCQDCLAQLADGGRVRCPECRETVPVPPEGVASFKTNFFVNGLLDLVKARACGDLRAGKPACALCPLVGGTSTGGPATARCLDCADDLCQACADGHRCTRQTHTHRVVDLVGYRAGWYDEEARERQAAQCPQHPGEALRFLCQPCSQLLCRECRLDPHLDHPCLPLAEAVRARRPGLEGLLAGVDNNLVELEAARRVEKEALARLREQAARVGTQVEEAAEGVLRALLAQKQEVLGQLRAHVEAAEEAARERLAELEGREQVARAAAAFARRVLSLGREAEILSLEGAIAQRLRQLQGCPWAPGPAPCLLPQLELHPGLLDKNCHLLRLSFEEQQPQKDGGKDGAGTQGGEESQSRREDEPKTERQGGVQPQAGDGAQTPKEEKAQTTREEGAQTLEEDRAQTPHEDGGPQPHRGGRPNKKKKFKGRLKSISREPSPALGPNLDGSGLLPRPIFYCSFPTRMPGDKRSPRITGLCPFGPREILVADEQNRALKRFSLNGDYKGTVPVPEGCSPCSVAALQSAVAFSASARLYLINPNGEVQWRRALSLSQASHAVAALPSGDRVAVSVAGHVEVYNMEGSLATRFIPGGKASRGLRALVFLTTSPQGHFVGSDWQQNSVVICDGLGQVVGEYKGPGLHGCQPGSVSVDKKGYIFLTLREVNKVVILDPKGSLLGDFLTAYHGLEKPRVTTMVDGRYLVVSLSNGTIHIFRVRSPDS
B2: mixed-lineage kinase 4 (MLK4), endogenous (protein)
chain: MALRGAAGATDTPVSSAGGAPGGSASSSSTSSGGSASAGAGLWAALYDYEARGEDELSLRRGQLVEVLSQDAAVSGDEGWWAGQVQRRLGIFPANYVAPCRPAASPAPPPSRPSSPVHVAFERLELKELIGAGGFGQVYRATWQGQEVAVKAARQDPEQDAAAAAESVRREARLFAMLRHPNIIELRGVCLQQPHLCLVLEFARGGALNRALAAANAAPDPRAPGPRRARRIPPHVLVNWAVQIARGMLYLHEEAFVPILHRDLKSSNILLLEKIEHDDICNKTLKITDFGLAREWHRTTKMSTAGTYAWMAPEVIKSSLFSKGSDIWSYGVLLWELLTGEVPYRGIDGLAVAYGVAVNKLTLPIPSTCPEPFAKLMKECWQQDPHIRPSFALILEQLTAIEGAVMTEMPQESFHSMQDDWKLEIQQMFDELRTKEKELRSREEELTRAALQQKSQEELLKRREQQLAEREIDVLERELNILIFQLNQEKPKVKKRKGKFKRSRLKLKDGHRISLPSDFQHKITVQASPNLDKRRSLNSSSSSPPSSPTMMPRLRAIQLTSDESNKTWGRNTVFRQEEFEDVKRNFKKKGCTWGPNSIQMKDRTDCKERIRPLSDGNSPWSTILIKNQKTMPLASLFVDQPGSCEEPKLSPDGLEHRKPKQIKLPSQAYIDLPLGKDAQRENPAEAESWEEAASANAATVSIEMTPTNSLSRSPQRKKTESALYGCTVLLASVALGLDLRELHKAQAAEEPLPKEEKKKREGIFQRASKSRRSASPPTSLPSTCGEASSPPSLPLSSALGILSTPSFSTKCLLQMDSEDPLVDSAPVTCDSEMLTPDFCPTAPGSGREPALMPRLDTDCSVSRNLPSSFLQQTCGNVPYCASSKHRPSHHRRTMSDGNPTPTGATIISATGASALPLCPSPAPHSHLPREVSPKKHSTVHIVPQRRPASLRSRSDLPQAYPQTAVSQLAQTACVVGRPGPHPTQFLAAKERTKSHVPSLLDADVEGQSRDYTVPLCRMRSKTSRPSIYELEKEFLS

Legend:
[1] = biological target: T1, IL-17RB-Flag (Flag-tagged IL-17RB, wild …)
[2] = biological target: T2, IL-17RB ΔV403˜S416 (Del-3), HA-tagged
[3] = biological target: T3, interleukin-17 receptor B (IL-17RB), …

Protein | in vitro ubiquitination assay with recombinant E1, E2 and ubiquitin (FIG. 18D) [1] | Y447 phosphorylation of IL-17RB (immunoblot with anti-P-Y447, FIG. 5D) [2] | IL-17RB phosphorylation at Y447 (immunoblot after MLK4 knockdown or knockout, FIG. 5A) [3]
B1 | purified TRIM56 could ubiquitinate IL-17RB at K470 in vitro | – | –
B2 | – | Del-3 failed to bind to MLK4 and phosphorylate Y447 | either knockdown (left) or knockout (right) of MLK4 nearly completely abolished IL-17RB phosphorylation at Y447
